Experimental data from publication PMC7422855.

Molecular target: human n-Glyceraldehyde-3-phosphate dehydrogenase (human) (UniProt P04406)
Assay: SEC-MALS; Superdex S200 10/300 in 20 mM HEPES pH 7.5, 100 mM NaCl, 1 mM TCEP; 18-angle MALS detector with differential refractive index detector

stoichiometry N: 4
Substance: human n-Glyceraldehyde-3-phosphate dehydrogenase, P04406 1-335 (enzyme; Cys152 partially oxidised to cysteine S-sulfonic acid (average occupancy 0.31±0.17 over 20 copies in crystal forms A, C and D; not significant in crystal form B); Cys152 partially oxidised to cysteine S-sulfonic acid (average occupancy 0.31±0.17 over 20 copies in crystal forms A, C and D; not significant in crystal form B); other documents disagree on this pair)
